Test: soluble on expression in E. coli; label from the status in PepcDB or PDB records

Sequence	soluble on expression in E. coli
MAGDPMNSLIDRRLNGRNKSAVNRERFLRRYKDQIRKAVQDLIRERSISDMDQGGEINLPARDISEPSFRHGEGGDREIVHPGNREFAKGDTFDRPQGGDGGSGSQPGEGESVDQFTFSLSRAEFLNLFFEDLELPHLARTQLGDVKQQRWHRAGYTTTGSPSMLSVNRTLKASLSRRVALGVGARAALDAAEQELEAARDAGAPQAELDRLLAEVEKCAARVARVPFLDDLDLRYRNRVAVAVPMARAVMFCLMDVSGSMDEMKKDLAKRFFTLLYMFLSRKYEHVDVIFIRHTDNAEEVDEQTFFYDPKSGGTIVLSALELMHEIVQKRYSPATWNIYAAQASDGDSFGADAGKSARFLAENLLPATRYFAYIEVPDSQEARKSSLWAEYEQESASHFVMRRICERGEIFPVFHDLFKKETVLEHHHHHH	soluble
MLCQKCQKRVANVQMTQIINNNKTVIYLCEQCAREEGKFNVISPFSINDFFSGFMGFPYMASAPQQNQDVVCETCGMSYEEFKKVGKLGCSNCYKTYGDRLVPLLRRLHGNIQYNGKFPSRAFGSIKISREIEKLKEQLNIAIKNEEYEKAAILRDQIRNLESNQNNM	not soluble
MVASSINEESSLAVNLTSDVEKASKTLFKAFEKSYANDYLMKKFFHIPITEKVSRARINAMIHYYTTCYHDLDGEIAEANDFDAVAIWSRPGCHLPATLSDDESFNKIFFSRLDCEEARSHASGNGLLLPLCHRKRS	not soluble
MEVDEDIELQKHQEQQSRKLQRFSEDNTGLMRNWNNPSSRIIRVSRASGGKDRHSKVLTSKGLRDRRIRLSVATAIQFYDLQDRLGFDQPSKAVEWLINAASDSITDLPLLNTNFDHLDQNQNQTKSACSSGTSESSLLSLSRTEIRGKARERARERTAKDRDKDLQNAHSSFTQLLTGGFDQQPSNRNWTGGSDCFNPVQLQIPNSSSQEPMNHPFSFVPDYNFGISSSSSAINGGYSSRGTLQSNSQSLFLNNNNNITQRSSISSSSSSSSPMDSQSISFFMATPPPLDHHNHQLPETFDGRLYLYYGEGNRSSDDKAKERR	not soluble
MSNKDIRVVVGMSGGVDSSVTAYLLKEQGYDVIGIFMKNWDDTDENGVCTATEDYNDVIAVCNQIGIPYYAVNFEEQYWDKVFTYFLDEYKKGRTPNPDVMCNKEIKFKAFLEHALKLGADYVATGHYARIRRHDDGHVEMLRGVDNNKDQTYFLNQLSQEQLSKVMFPIGDIEKSEVRRIAEEQNLATAKKKDSTGICFIGERNFKEFLSHYLPAQSGEMLTLNGKKMGQHSGLMYYTIGQRHGLGIGGDGDPWFVVGKNLNDNVLYVEQGFHHDALYSDYLIASDYSFVNPSEIDLEKGFECTAKFRYRQKDTKVYVQRENENSIRVTFAEPVRAITPGQAVVFYNQEVCLGGATIDDVYKNEGQLSYVVLEHHHHHH	soluble
MVKVVVDASNVAYSTKNENSQPQMSNILAAVKSLEESGDEFVIIADASLRHDIDDKEKFEKLLESENVEEVPAGNDADHFILNIAHNEKAKILSNDKFRDYAAEFKNINSMRIPFVIENGRVTFGKPKSPKKDKNILQHISDEIIKELNFKRWEVYTGKEGLEISPLNIAKQAIIRIDNDNDTSSKLEKVFSKIPMFNKIVDMVDDVEVAAPYVIFVLVHPKDYKLAVKNAGNISVTVADRLRLEKKPLIAVRNDLFTRPGTFELNIMLADEVTEHAPYNVLVRVSTHDEVFIKKNSRNIASTIAGRLGSWKFPFVSVKPDMLLEKPGDFEIELEKGGSLDGLEHHHHHH	soluble
MSTDIDCIVIGAGVVGLAIARALAAGGHEVLVAEAAEGIGTGTSSRNSEVIHAGIYYPADSLKARLCVRGKHLLYEYCAARGVPHQRLGKLIVATSDAEASQLDSIARRAGANGVDDLQHIDGAAARRLEPALHCTAALVSPSTGIVDSHALMLAYQGDAENDGAQLVFHTPLIAGRVRPEGGFELDFGGAEPMTLSCRVLINAAGLHAPGLARRIEGIPQDSIPPEYLCKGSYFTLAGRAPFSRLIYPVPQHAGLGVHLTLELGGQAKFGPDTEWITTEDYTLDPRRADVFYAAVRSYWPALPDGALAPGYTGIRPKISGPHEPAADFAIAGPASHGVAGLVNLYGIKSPGLTASLAIAEETLARLAALEHHHHHH	not soluble
MSLQTPMQTVDDLRSVCDELPHSLETFPFDDETLVFKVGYLSKSRMYALTDITQDPLRLSLKVDPERGEELRQAHPQSIAPGYHLNKKHWVTVTLDGTVPAELLGELLRGSYLLVTKKGFTKAERKELGLPDSLEGGSHHHHHH	soluble
MHRALNQDDDHNQDGQDLLEAVLARDNLARAWRRVKSNRGAPGIDGVTTAEWPEHARAHWPATREQIEAGRYRPQPVRRVDIPKPDGGQRQLGIPTVTDRVIQQAIAQVLIPIFDPGFSASSFGFRPGRNAHQAIRQVQAHVKAGYRWAVDLDLARFFDNVNHDLLMSLLSRSIADKRLLALIGRYLRAGVLVGEHPQPSEVGTPQGGPLSPLLANVLLHQFDLELERRGHRFARYADDVIILVKSRRAAERVMQSLTYFLQSTLKLTVNLAKSQVAPMSECSFLGFTLVGKKIRWTEKSLANFKHRVRQLTGRSWGVSMEYRLEKLGQYLRGWFGYYGISQYYRPIPELDEWIRRRVRMCYWKQWRWARTKIRHLLDLGIPLKAAIQHGVSSLSYWRMARTPVTQQAMSNDWLRAQGLLSIKDLWCKAQSYGPDKGLEHHHHHH	not soluble
MMSDQENENEHAKAFLGLAKCEEEVDAIEREVELYRLNKMKPVYEKRDAYIDEIAEFWKIVLSQHVSFANYIRASDFKYIDTIDKIKVEWLALESEMYDTRDFSITFHFHGIEGDFKEQQVTKVFQIKKGKDDQEDGILTSEPVPIEWPQSYDSINPDLIKDKRSPEGKKKYRQGMKTIFGWFRWTGLKPGKEFPHGDSLASLFSEEIYPFCVKYYAEAQRDLEDEEGESGLSADGDSEDDDGSLGEVDLPLSDEEPSSKKRKV	soluble
MVAGFTVHSGPHHVPHRDMTHHSRPPGHAPRVTILMPVYNGEKYLAAAMESILDQTFRDFILLIIDDGSSDSSLAIARSFGDPRVQVERNPKNLGLVKTLNRGLDLVQTEFVARMDCDDIALPDRLEKQIAFLDENPDIGMCGTAYELFHESLRQTIRPPCRHEEIVYGLLDDNVFLHSSVIVRMEVLNRHGLRYREDYRLAEDYELWARLARYTHIGNLPQVLVRYRSHPENVSNTNKGEQIATRDRVRLEHLESFGLAPAADQKTLHIDLFSLAFQGSPDQLADARRWLEALARAVSTRCGLPLGRLHRDFALLWYSACGRSAHHGLTVLFSYLKSAMAWKGPKSYILKLLFRCLMRDPIPAVTK	not soluble
MSLSGVVERITFVNEENGFSVVKIKSKGFSDLVTAVGNMASVNVGAVVSLRGEWKYDSKFGRQFNVYHYEESIPATVAGIEKYLGSGLIKGIGPVNAKRIVKVFKEDTIRVIEEEPDRLIEVPGIGKKRVEMIKEAWQNQKEIKNVMLFLQSHGVSTAFAVKIFKTYGSDSIKIVKENPYRLADDIWGIGFKTADKIAQNMGYDKESYARIRSGIMYALNEFANDGHCFAKKDELVNKASELLGVELEKVETAIQHMLEEKSVIMEEDDAVYLPPFYYSEVGVARRIREIIETKSMYSFYNFDGIIEDLQRECNIQYDEVQIEAIRKAVVSKFMVLTGGPGTGKTTTTLAIIKVFQKLGATVLLAAPTGRAAKRMSEATGMEAKTIHRLLEYSPQDGYKKNDDNPLECDVLIIDETSMIDIILMYNLLKAVSNNTVVILVGDVDQLASVGAGNVLKDIIESGMVTVVRLMRIFRQAMGSAIVTNAHKINHGEYPVLKGGKNSNFFFIEEEDPEKIVELVRELCSKRLPGYYKINPLNDIQVLCPMQKGVVGAQNLNTVLQETLNPCDISIKYGGTIYKLNDRVMQIKNNYDKNVFNGDMGIITDIDQEEKTVRIKFDDAEVEYDVTELDEVTLAYAVTVHKSQGSEYNFVVAPFTMQHYMMLQRNLLYTCVTRAKKVLVLIGSKKALGCCIRNSRSMDRNTKLAQRLKADTEGHHHHHH	soluble
